Results: US20100136005A1 (Genentech, published 2010)

How the values were obtained:
rhesus CD11a [1] = biological target: T1, rhesus CD11a (rhesus, UniProt H9Z8N3 26-1169); assay: cell binding, rhesus against human CD11a
T1 construct: whole, on cells; also called rhCD11a
T1 sequence: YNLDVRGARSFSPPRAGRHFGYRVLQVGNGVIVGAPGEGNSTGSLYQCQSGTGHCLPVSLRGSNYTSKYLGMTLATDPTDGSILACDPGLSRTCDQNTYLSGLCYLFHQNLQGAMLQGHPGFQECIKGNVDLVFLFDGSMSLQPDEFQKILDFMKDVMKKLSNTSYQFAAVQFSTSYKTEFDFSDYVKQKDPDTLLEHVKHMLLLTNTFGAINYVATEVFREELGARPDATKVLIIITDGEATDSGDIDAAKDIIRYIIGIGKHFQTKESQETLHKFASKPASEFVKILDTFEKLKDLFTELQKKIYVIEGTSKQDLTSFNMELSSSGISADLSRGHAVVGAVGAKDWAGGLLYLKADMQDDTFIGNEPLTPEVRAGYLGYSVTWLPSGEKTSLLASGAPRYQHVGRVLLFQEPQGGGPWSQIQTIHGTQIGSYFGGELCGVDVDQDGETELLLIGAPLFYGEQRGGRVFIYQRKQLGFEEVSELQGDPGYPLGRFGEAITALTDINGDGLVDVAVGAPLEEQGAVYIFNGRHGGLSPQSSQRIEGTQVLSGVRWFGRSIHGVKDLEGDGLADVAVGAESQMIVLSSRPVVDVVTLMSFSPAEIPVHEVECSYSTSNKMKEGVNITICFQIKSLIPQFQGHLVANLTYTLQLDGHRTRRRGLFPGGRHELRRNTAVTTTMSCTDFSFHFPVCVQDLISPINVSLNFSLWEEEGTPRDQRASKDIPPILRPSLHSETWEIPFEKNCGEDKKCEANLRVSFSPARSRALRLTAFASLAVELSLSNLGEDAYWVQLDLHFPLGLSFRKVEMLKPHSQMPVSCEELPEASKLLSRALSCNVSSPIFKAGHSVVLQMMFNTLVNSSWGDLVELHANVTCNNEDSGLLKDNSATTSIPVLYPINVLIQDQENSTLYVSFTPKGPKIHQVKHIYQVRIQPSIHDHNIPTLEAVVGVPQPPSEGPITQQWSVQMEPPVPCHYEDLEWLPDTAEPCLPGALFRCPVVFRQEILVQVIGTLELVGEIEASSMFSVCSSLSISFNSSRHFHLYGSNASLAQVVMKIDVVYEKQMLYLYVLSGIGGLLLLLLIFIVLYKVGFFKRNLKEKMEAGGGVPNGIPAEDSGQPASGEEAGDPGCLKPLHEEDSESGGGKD

human CD11a [2] = biological target: T2, human CD11a (human, UniProt P20701 26-1170); assay: cell-based or functional assay
human CD11a [3] = biological target: T2, human CD11a; assay: cell-based or functional assay; remark: listed apart in the source
rhesus CD11a [4] = biological target: T1, rhesus CD11a; assay: binding to rhesus peripheral blood lymphocytes; end assigned by the printed EC50s
rhesus CD11a [5] = biological target: T1, rhesus CD11a; assay: rhesus EC50 of the variant against human EC50 of HuIgG1; end assigned by the printed EC50s
[6] = biological target: T3, rhesus-human chimeric CD11a (human (I-domain mutated to rhesus), UniProt P20701 26-1170); assay: cell-based or functional assay
T3 sequence (looked up): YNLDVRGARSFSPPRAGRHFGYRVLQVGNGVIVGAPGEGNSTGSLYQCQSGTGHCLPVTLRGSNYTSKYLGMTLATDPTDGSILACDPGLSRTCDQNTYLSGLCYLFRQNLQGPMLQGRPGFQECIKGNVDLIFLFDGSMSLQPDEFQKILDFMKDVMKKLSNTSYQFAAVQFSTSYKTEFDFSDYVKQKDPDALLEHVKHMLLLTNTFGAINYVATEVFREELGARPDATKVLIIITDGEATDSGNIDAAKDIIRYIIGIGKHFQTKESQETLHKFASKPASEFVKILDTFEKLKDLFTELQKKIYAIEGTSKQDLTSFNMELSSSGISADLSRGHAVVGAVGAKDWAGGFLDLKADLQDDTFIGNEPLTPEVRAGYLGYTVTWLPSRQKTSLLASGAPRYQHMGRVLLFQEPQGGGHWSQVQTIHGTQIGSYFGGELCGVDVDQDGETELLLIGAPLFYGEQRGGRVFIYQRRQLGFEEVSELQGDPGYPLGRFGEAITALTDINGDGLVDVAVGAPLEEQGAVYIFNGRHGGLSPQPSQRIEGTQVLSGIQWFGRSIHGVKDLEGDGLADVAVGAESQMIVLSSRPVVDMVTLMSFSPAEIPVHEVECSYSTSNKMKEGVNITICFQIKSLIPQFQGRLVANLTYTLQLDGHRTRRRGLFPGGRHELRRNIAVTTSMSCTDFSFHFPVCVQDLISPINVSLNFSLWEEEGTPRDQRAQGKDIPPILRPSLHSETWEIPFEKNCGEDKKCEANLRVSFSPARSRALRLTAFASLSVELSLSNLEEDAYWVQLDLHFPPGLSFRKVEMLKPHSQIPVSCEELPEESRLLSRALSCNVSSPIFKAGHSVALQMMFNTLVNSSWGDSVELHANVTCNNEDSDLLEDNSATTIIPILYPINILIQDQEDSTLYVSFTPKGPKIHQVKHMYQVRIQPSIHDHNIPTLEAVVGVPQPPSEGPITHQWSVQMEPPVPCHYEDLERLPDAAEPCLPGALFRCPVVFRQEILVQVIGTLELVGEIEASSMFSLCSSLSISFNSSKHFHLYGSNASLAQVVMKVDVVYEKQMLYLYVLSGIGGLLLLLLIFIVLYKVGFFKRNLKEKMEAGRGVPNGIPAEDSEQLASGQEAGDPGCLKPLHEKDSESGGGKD

rhesus CD11a [7] = biological target: T1, rhesus CD11a; assay: cell-based or functional assay
[8] = biological target: T3, rhesus-human chimeric CD11a; assay: cell-based or functional assay; remark: listed apart in the source
rhesus CD11a [9] = biological target: T1, rhesus CD11a; assay: cell-based or functional assay; remark: listed apart in the source
rhesus CD11a [10] = biological target: T1, rhesus CD11a; assay: cell-based or functional assay; remark: listed apart in the source
rhesus CD11a [11] = biological target: T1, rhesus CD11a; assay: saturation binding, Kd(app) compared
Description: Antibody affinities were determined by saturation binding using either peripheral blood mononuclear cells (murine MHM24 and HuIgG1) or rhesus leukocytes (MHM23, RhIgG1). In each assay, a radiolabeled antibody was serially diluted in HBSS-0.2% gelatin in quadruplicate. Nonspecific binding was determined by the addition of 500 nM final concentration of homologous unlabeled antibody in duplicate through the serial dilution. Human lymphocytes or rhesus leukocytes were added to the plates in a volume of 170 μl per well. Plates were incubated for 2 hr at room temperature on an orbital plate shaker. After incubation, cells were harvested using a SKATRON™ cell harvester (Lier, Norway) and washed 10 times with PBS containing 0.25% gelatin and 0.1% sodium azide. Samples were then counted for 1 min in an LBK Wallac GammaMaster gamma counter (Gaithersburg, Md.). Data was transformed from counts per minute to nanomolarity and four-parameter curve-fitting of saturation plots (bound versus total) was then performed to determine Kd (app) values.

rhesus CD11a [12] = biological target: T1, rhesus CD11a; assay: binding to rhesus peripheral blood lymphocytes; ratio to HuIgG1 EC50 (45.6 nM)

B1: humanized MHM24 HuIgG1 (antibody, V domains shown)
VH: EVQLVESGGGLVQPGGSLRLSCAASGYSFTGHWMNWVRQAPGKGLEWVGMIHPSDSETRYNQKFKDRFTISVDKSKNTLYLQMNSLRAEDTAVYYCARGIYFYGTTYFDYWGQGTLVTVSS
VL: DIQMTQSPSSLSASVGDRVTITCRASKTISKYLAWYQQKPGKAPKLLIYSGSTLQSGVPSRFSGSGSGTDFTLTISSLQPEDFATYYCQQHNEYPLTFGQGTKVEIKR
notes: F(ab)-8 VL and VH fused to human constant light and IgG1 heavy chains; also called huMHM24
- fold reduction in binding (rhesus against human CD11a) (rhesus CD11a [1]): ~1000 fold
- IC50 Value (nM), Jurkat:HuK cell adhesion (human CD11a [2]): 0.13 nM
- IC50 Value (nM), human mixed lymphocyte response (human CD11a [3]): 0.38 nM

B2: H2C11 (antibody, V domains shown)
VH: EVQLVESGGGLVQPGGSLRLSCAASGYSFTGHWMNWVRQAPGKGLEWVGMIAPASSNTRYNQKFKDRFTISVDKSKNTLYLQMNSLRAEDTAVYYCARGIYFYGTTYFDYWGQGTLVTVSS
VL: DIQMTQSPSSLSASVGDRVTITCRASKTISKYLAWYQQKPGKAPKLLIYSGSTLQSGVPSRFSGSGSGTDFTLTISSLQPEDFATYYCQQHNEYPLTFGQGTKVEIKR
- fold improvement over the EC50 of HuIgG1 for rhesus CD11a (rhesus CD11a [4]): 240 to 415 fold
- fold weaker than the EC50 of HuIgG1 for human CD11a (rhesus CD11a [5]): 3 to 5 fold

B3: rhesus-binding MHM24 RhIgG1 (antibody, V domains shown)
VH: EVQLVESGGGLVQPGGSLRLSCAASGYSFTGHWMNWVRQAPGKGLEWVGMIAPASSSTRYNQKFKDRFTISVDKSKNTLYLQMNSLRAEDTAVYYCARGIYFYGTTYFDYWGQGTLVTVSS
VL: DIQMTQSPSSLSASVGDRVTITCRASKTISKYLAWYQQKPGKAPKLLIYSGSTLQSGVPSRFSGSGSGTDFTLTISSLQPEDFATYYCQQHNEYPLTFGQGTKVEIKR
notes: HuIgG1 variant, human IgG1; also called H2C12; rhesusized antibody
- fold improvement over the EC50 of HuIgG1 for rhesus CD11a (rhesus CD11a [4]): 240 to 415 fold
- IC50 Value (nM), Rh/HuCD11a:HuK cell adhesion [6]: 4.9 nM
- IC50 Value (nM), RhLy:HuICAM cell adhesion (rhesus CD11a [7]): 5.3 nM
- IC50 Value (nM), RhLy:HuK cell adhesion (rhesus CD11a [7]): 119 nM
- fold down from MHM23, Rh/HuCD11a:HuK adhesion [8]: 4 fold
- fold less efficacious than MHM23, RhLy:HuICAM adhesion (rhesus CD11a [9]): 4 fold
- fold less efficacious than MHM23, RhLy:HuK adhesion (rhesus CD11a [9]): 74 fold
- fold weaker than the EC50 of HuIgG1 for human CD11a (rhesus CD11a [5]): 3 to 5 fold
- IC50 Value (nM), rhesus mixed lymphocyte response (rhesus CD11a [10]): 23.4 nM
- fold down from the Kd of HuIgG1 for human CD11a (rhesus CD11a [11]): ~26 fold

B4: SerL52Ala (antibody, human IgG1, V domains shown)
VH: EVQLVESGGGLVQPGGSLRLSCAASGYSFTGHWMNWVRQAPGKGLEWVGMIHPSDSETRYNQKFKDRFTISVDKSKNTLYLQMNSLRAEDTAVYYCARGIYFYGTTYFDYWGQGTLVTVSS
VL: DIQMTQSPSSLSASVGDRVTITCRASKTISKYLAWYQQKPGKAPKLLIYSGATLQSGVPSRFSGSGSGTDFTLTISSLQPEDFATYYCQQHNEYPLTFGQGTKVEIKR
notes: HuIgG1 variant (human IgG1)
- Var.EC50/HuIgG1 EC50 (rhesus CD11a [12]): 13.3 ratio
